Here are results for six molecules from patent US20120065146A1 (published 2012).

Starred links: 1 amine or outer side, 2 acyl side, 3 side chain; linkers in the order of their positions; H or OH if unused. Non-standard residues stand in square brackets, D forms with d. No end group written: not given here. F2Pmab = 2-amino-4,4-difluoro-3-methyl-4-phosphobutanoic acid, in place of p-Thr, C[C@H]([C@H](N[*:1])C(=O)[*:2])C(F)(F)P(=O)(O)O; Abu(3R-Me,4-PO3H2) = C[C@@H](CP(=O)(O)O)[C@H](N)C(=O)O; pT = C[C@@H](OP(=O)(O)O)[C@H](N)C(=O)O

In assay [1] the target is T1, Flag-Plk3(K52R) (UniProt Q9H4B4 40-646, K52R).
T1 construct: A gift construct; K52 may be counted on another entry than the printed human one; not shown: Flag tag
The assay is described as follows: pull-down from mixed HeLa lysates, anti-Flag blot (FIG. 4B).

Assay [2] addresses T2, Plk1 (endogenous, in mitotic HeLa cell lysates) (UniProt P53350 2-603).
T2 construct: Endogenous full-length protein in total lysate of nocodazole-arrested HeLa cells; also called polo-like kinase 1
Put plainly: pull-down from mitotic HeLa lysate with bead-immobilised peptide (FIG. 4A).

Assay [3] deals with T1, Flag-Plk3(K52R). Put plainly: assay not given; pull-downs of Examples 3 and 6.
The target of assay [4] is T3, HA-EGFP-Plk1 (UniProt P53350 1-603).
T3 construct: also called full-length Plk1 (ELISA); not shown: HA tag and EGFP
Put plainly: ELISA competition (FIG. 16A). For orientation: An ELISA detects its analyte on a solid surface through an enzyme-linked reagent.

Assay [5] deals with T3, HA-EGFP-Plk1. Put plainly: ELISA competition on immobilised biotinylated p-T78 9-mer (FIG. 16A).
Assay [6] concerns the target T2, Plk1 (endogenous, in mitotic HeLa cell …). Put plainly: pull-down from mitotic HeLa lysate with bead-immobilised peptide (FIG. 13A).
Another assay deals with T4, Flag-Plk2(K607R, Y626F) (UniProt Q9NYY3 1-685).
T4 construct: not shown: Flag tag
Put plainly: pull-down of transfected HeLa lysate with immobilised MQSpTPL (FIG. 15B).

Assay [7] addresses T5, Flag-Plk2(L606F, K607R, 5608T, D609R, K610S, Y626F, H627Q) (UniProt Q9NYY3 1-685).
T5 construct: 5608T is read as S608T; not shown: Flag tag
The assay is described as above.

T2 sequence (P53350 2-603 limits assumed): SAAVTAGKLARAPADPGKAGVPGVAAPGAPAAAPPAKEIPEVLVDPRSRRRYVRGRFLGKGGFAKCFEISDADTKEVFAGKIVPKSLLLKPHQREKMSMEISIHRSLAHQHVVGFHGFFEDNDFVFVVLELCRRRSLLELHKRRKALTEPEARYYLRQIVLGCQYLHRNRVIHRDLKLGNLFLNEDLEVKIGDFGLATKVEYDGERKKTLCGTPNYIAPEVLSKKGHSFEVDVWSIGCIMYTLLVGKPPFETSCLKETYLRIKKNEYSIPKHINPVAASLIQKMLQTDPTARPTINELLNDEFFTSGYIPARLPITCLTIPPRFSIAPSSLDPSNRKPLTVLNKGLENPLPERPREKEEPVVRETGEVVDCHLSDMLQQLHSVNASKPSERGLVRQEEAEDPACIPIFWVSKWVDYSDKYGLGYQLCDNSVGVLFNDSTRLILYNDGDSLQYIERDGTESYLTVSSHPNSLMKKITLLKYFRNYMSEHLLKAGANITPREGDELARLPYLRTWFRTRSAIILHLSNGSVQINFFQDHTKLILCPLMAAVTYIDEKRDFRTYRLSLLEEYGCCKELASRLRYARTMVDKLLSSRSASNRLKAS
T1 sequence (Q9H4B4 40-646 K91R): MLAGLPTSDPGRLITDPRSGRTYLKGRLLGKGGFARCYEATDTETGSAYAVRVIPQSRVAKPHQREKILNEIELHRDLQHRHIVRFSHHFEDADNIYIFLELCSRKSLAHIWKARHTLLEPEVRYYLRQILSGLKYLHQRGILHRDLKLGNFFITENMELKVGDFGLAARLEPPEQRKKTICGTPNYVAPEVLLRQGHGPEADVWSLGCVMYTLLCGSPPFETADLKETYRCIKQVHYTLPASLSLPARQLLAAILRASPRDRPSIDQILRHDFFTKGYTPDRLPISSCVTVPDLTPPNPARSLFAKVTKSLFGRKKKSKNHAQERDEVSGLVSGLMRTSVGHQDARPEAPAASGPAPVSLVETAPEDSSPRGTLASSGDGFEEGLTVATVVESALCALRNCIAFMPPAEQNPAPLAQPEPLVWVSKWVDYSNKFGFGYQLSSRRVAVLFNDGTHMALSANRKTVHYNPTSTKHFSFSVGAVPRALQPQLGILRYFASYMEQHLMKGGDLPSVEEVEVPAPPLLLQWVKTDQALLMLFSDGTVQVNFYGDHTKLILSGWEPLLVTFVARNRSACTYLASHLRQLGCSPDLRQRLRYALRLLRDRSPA
T3 sequence (P53350 whole entry): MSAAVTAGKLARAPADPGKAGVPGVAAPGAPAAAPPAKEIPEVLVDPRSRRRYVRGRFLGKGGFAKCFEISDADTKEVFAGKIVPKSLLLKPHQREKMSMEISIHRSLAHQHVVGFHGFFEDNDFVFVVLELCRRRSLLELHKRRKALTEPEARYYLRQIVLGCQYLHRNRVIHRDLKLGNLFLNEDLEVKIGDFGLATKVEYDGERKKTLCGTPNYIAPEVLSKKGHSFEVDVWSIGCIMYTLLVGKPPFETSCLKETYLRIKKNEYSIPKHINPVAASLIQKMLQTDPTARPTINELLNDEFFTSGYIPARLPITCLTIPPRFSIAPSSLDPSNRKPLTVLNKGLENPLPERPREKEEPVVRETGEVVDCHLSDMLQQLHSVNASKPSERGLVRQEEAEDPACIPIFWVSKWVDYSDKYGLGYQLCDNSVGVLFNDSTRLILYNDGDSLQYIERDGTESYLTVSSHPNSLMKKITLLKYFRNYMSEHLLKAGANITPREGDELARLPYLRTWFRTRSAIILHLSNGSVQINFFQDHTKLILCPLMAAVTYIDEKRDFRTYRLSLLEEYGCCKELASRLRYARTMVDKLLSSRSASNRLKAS
T5 sequence (Q9NYY3 whole entry L606F/K607R/S608T/D609R/K610S/Y626F/H627Q): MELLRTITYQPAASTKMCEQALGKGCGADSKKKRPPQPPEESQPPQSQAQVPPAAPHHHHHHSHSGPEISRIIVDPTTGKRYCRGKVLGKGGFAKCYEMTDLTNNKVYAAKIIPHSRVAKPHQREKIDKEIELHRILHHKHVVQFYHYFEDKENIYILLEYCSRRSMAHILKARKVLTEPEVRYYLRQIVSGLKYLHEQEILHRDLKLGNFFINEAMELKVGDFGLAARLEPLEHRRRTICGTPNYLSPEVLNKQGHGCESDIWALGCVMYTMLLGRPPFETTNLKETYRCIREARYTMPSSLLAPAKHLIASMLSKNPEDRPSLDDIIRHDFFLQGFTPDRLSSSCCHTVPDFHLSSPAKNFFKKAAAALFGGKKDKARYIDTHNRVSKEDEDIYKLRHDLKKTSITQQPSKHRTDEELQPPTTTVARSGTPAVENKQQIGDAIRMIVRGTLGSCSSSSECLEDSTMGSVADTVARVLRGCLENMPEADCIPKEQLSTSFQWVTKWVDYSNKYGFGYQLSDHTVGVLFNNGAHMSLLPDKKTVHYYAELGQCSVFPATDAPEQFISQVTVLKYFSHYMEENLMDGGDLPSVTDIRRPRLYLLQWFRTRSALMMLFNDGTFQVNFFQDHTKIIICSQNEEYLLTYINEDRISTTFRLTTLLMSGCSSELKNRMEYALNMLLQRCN
T4 sequence (Q9NYY3 whole entry K607R/Y626F): as the sequence (Q9NYY3 whole entry L606F/K607R/S608T/D609R/K610S/Y626F/H627Q) above, with F606L, T608S, R609D, S610K, Q627H counted along it

B1: PLHS-Pmab (peptide)
peptide: PLHS[Abu(3R-Me,4-PO3H2)]
modifications: also: N-acetylated in soluble form, N-terminal Cys-(CH2)6 linker in pull-down form
notes: also called C-(CH2)6-PLHS-Pmab
For the molecule B1, in the assay with Flag-Plk3(K52R) [1], the binding result is reported as “no binding”.

B2: PLHA-Pmab (peptide)
peptide: PLHA[Abu(3R-Me,4-PO3H2)]
modifications: also: N-acetylated in soluble form
notes: also called Pmab(S77A); C-(CH2)6-PLHA-Pmab
On to B2, for which the binding result in assay [2] was “no binding”.

B3: PLHSpT (peptide)
peptide: PLHS[pT]
modifications: also: Ac and C-terminal amide in soluble form, N-terminal Cys-(CH2)6 linker in pull-down form
notes: Derived from the Thr78 region of PBIP1; also called Ac-PLHSpT-NH2; C-(CH2)6-PLHSpT
As for B3, the binding result with Flag-Plk3(K52R) [3] is reported as “no binding”.

As to PLHS[F2Pmab]A (also: in pull-downs N-terminal Cys-(CH2)6 linker cross-linked to beads, also called C-(CH2)6-PLHS-F2Pmab-A) [PLHS-F2Pmab-A], the binding result with HA-EGFP-Plk1 [4] is reported as “binds”.

B4: PLHA-F2Pmab-A (peptide)
peptide: PLHA[F2Pmab]A
modifications: also: in pull-downs N-terminal Cys-(CH2)6 linker cross-linked to beads
notes: also called F2Pmab(S77A); C-(CH2)6-PLHA-F2Pmab-A
B4: the binding result is listed as “no binding (tested: 1000-fold higher molar concentrations)” in the assay with HA-EGFP-Plk1 [5] and “no binding” in assay [6].

For the molecule MQS[pT]PL (also: in pull-downs N-terminal Cys-(CH2)6 linker cross-linked to beads, also called synthetic optimal peptide) [MQSpTPL], the binding result with Flag-Plk2(K607R, Y626F) is reported as “no binding”; in assay [7], “no binding”.
